Assay results: patent US20120302737A1 (Genentech, published 2012)

What was measured:
HER2 receptor ECD [1] = target: T1, HER2 receptor ECD (UniProt P04626 23-652, limits assumed); experiment: Octet; loaded probe, 1st antigen HER2
T1 construct: extracellular domain; also called HER2ECD; HER2 extracellular domain

[2] = target: T2, EGFR on cells (NR6 expressing EGFR; HCA7) (UniProt P00533 25-1210, limits assumed); experiment: equilibrium binding on NR6 cells expressing EGFR, radiolabeled antibody competed with unlabeled antibody
T2 construct: whole, on cells; also called EGFR-NR6; EGFR-expressing NR6 cells

HER2 receptor ECD [3] = target: T1, HER2 receptor ECD; experiment: Octet; antibody loaded on the probe, 1st antigen HER2
[4] = target: T2, EGFR on cells (NR6 expressing EGFR; …); experiment: equilibrium binding on HCA7 cells co-expressing EGFR and HER2, radiolabeled antibody competed with unlabeled antibody

| binding result (HER2 receptor ECD [1]) | Kd [2] | binding result (HER2 receptor ECD [3]) | Kd [4] | Binder |
| --- | --- | --- | --- | --- |
| no binding | 1150 pM | – | – | one-armed α-EGFR engineered antibody (antibody, also called 1-armed α-EGFR; One-Armed EGFR) heavy: not shown not shown light: DIQMTQSPSSLSASVGDRVTITCRASQDVSTAVAWYQQKPGKAPKLLIYSASFLYSGVPSRFSGSGSGTDFTLTISSLQPEDFATYYCQQSYPTPYTFGQGTKVEIKRTVAAPSVFIFPPSDEQLKSGTASVVCLLNNFYPREAKVQWKVDNALQSGNSQESVTEQDSKDSTYSLSSTLTLSKADYEKHKVYACEVTHQGLSSPVTKSFNRGEC |
| – | 560 pM | no binding | 340 pM | wild-type α-EGFR antibody (D1.5) (antibody, human IgG1, kappa, V domains shown, also called Wt α-EGFR (D1.5); D1.5 anti-EGFR antibody) VH: EVQLVESGGGLVQPGGSLRLSCAASGFTFTGNWIHWVRQAPGKGLEWVGEISPSGGYTDYADSVKGRFTISADTSKNTAYLQMNSLRAEDTAVYYCARESRVSYEAAMDYWGQGTLVTVSS VL: DIQMTQSPSSLSASVGDRVTITCRASQDVSTAVAWYQQKPGKAPKLLIYSASFLYSGVPSRFSGSGSGTDFTLTISSLQPEDFATYYCQQSYPTPYTFGQGTKVEIKR |
